Assay results taken from article doi:10.1101/2020.05.28.119206 (bioRxiv, 2020).

Target: the molecule itself
Test: cryo-EM structure

B1: elastase-digested native human uromodulin filaments (UMODe) (domain or fragment)
chain: not shown
modifications: N-glycans at N322, N396, N513
B1: binds.
